In the supplement of paper PMC9112550, “Optimization of the antimicrobial peptide Bac7 by deep mutational scanning” (BMC Biology, 2022):

Test system: Escherichia coli TOP10
Assay: shrunken log2 fold change of peptide-encoding DNA abundance (4.5 h post-induction vs induction); higher = less antimicrobial activity (less host growth inhibition)
Settings: time post-induction: 4.5 h; library: site-saturation at positions 5, 18, 19, 20
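Note: peptides expressed intracellularly from a pBAD plasmid library in pooled LB shake-flask culture, induced with 0.3% L-arabinose, DNA abundance read by NGS, three biological replicates, DESeq2 with apeglm shrinkage.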

Sequence	shrunken log2 fold change
RRIRVRPPRLPRPRPRPKPPPRP	0.318
RRIRMRPPRLPRPRPRPDTEPRP	0.33
RRIRFRPPRLPRPRPRPKFAPRP	0.102
RRIRKRPPRLPRPRPRPKLSPRP	-0.0159
RRIRRRPPRLPRPRPRPRRLPRP	0.54
RRIRPRPPRLPRPRPRPWMQPRP	0.0452
RRIRGRPPRLPRPRPRPVLWPRP	1
RRIRMRPPRLPRPRPRPDTNPRP	1.3
RRIRARPPRLPRPRPRPGSFPRP	0.495
RRIRRRPPRLPRPRPRPETDPRP	-0.00744
RRIRERPPRLPRPRPRPKKRPRP	0.0479
RRIRWRPPRLPRPRPRPIQWPRP	0.25
RRIRHRPPRLPRPRPRPVMCPRP	-0.175
RRIRCRPPRLPRPRPRPIRAPRP	-0.0291
RRIRIRPPRLPRPRPRPFWSPRP	0.0627
RRIRSRPPRLPRPRPRPDKVPRP	0.151
RRIRIRPPRLPRPRPRPSIIPRP	-0.866
RRIRLRPPRLPRPRPRPSMVPRP	-0.665
RRIRRRPPRLPRPRPRPWVHPRP	0.000557
RRIRARPPRLPRPRPRPSNYPRP	-0.901
RRIRPRPPRLPRPRPRPYKTPRP	0.001
RRIRQRPPRLPRPRPRPTCAPRP	0.406
RRIRMRPPRLPRPRPRPVSLPRP	0.422
RRIRYRPPRLPRPRPRPQDYPRP	-0.236
RRIRMRPPRLPRPRPRPGFEPRP	0.526

Sequence	shrunken log2 fold change
RRIRTRPPRLPRPRPRPNFTPRP	-0.0395
RRIRIRPPRLPRPRPRPEPDPRP	-0.00501
RRIRQRPPRLPRPRPRPHGNPRP	0.0941
RRIRNRPPRLPRPRPRPIPMPRP	-0.026
RRIRFRPPRLPRPRPRPNWHPRP	-0.0729
RRIRKRPPRLPRPRPRPAWDPRP	0.497
RRIRLRPPRLPRPRPRPHGFPRP	0.000509
RRIRYRPPRLPRPRPRPRLLPRP	-0.0826
RRIRHRPPRLPRPRPRPTFRPRP	0.0997
RRIRYRPPRLPRPRPRPDEWPRP	0.0549
RRIRPRPPRLPRPRPRPWCDPRP	-0.301
RRIRLRPPRLPRPRPRPGWDPRP	0.507
RRIRQRPPRLPRPRPRPWKGPRP	0.013
RRIRSRPPRLPRPRPRPSPFPRP	-0.191
RRIRHRPPRLPRPRPRPDEMPRP	0.0307
RRIRWRPPRLPRPRPRPPTDPRP	0.415
RRIRCRPPRLPRPRPRPITQPRP	-0.0791
RRIRKRPPRLPRPRPRPPAFPRP	0.309
RRIRERPPRLPRPRPRPMQDPRP	0.306
RRIRWRPPRLPRPRPRPMQIPRP	0.0922
RRIRIRPPRLPRPRPRPQVMPRP	-0.604
RRIRCRPPRLPRPRPRPQGSPRP	0.0401
RRIRGRPPRLPRPRPRPLIMPRP	0.206
RRIRARPPRLPRPRPRPLFGPRP	0.235
RRIRWRPPRLPRPRPRPHWTPRP	-0.158

Sequence	shrunken log2 fold change
RRIRCRPPRLPRPRPRPNFKPRP	-0.21
RRIRQRPPRLPRPRPRPRDYPRP	0.0272
RRIRFRPPRLPRPRPRPTKNPRP	-0.0239
RRIRDRPPRLPRPRPRPPLRPRP	0.271
RRIRSRPPRLPRPRPRPYHHPRP	-0.511
RRIRFRPPRLPRPRPRPHWPPRP	0.251
RRIRVRPPRLPRPRPRPYYAPRP	-0.915
RRIRWRPPRLPRPRPRPCWCPRP	-0.215
RRIRFRPPRLPRPRPRPACWPRP	0.471
RRIRWRPPRLPRPRPRPYCGPRP	-0.187
RRIRIRPPRLPRPRPRPRNMPRP	-0.243
RRIRTRPPRLPRPRPRPQNPPRP	-0.148
RRIRNRPPRLPRPRPRPTGCPRP	-0.0633
RRIRKRPPRLPRPRPRPFPWPRP	0.582
RRIRVRPPRLPRPRPRPNIFPRP	-0.234
RRIRKRPPRLPRPRPRPYKKPRP	-0.201
RRIRIRPPRLPRPRPRPPQLPRP	-0.122
RRIRFRPPRLPRPRPRPALKPRP	-0.0754
RRIRHRPPRLPRPRPRPGCHPRP	-0.242
RRIRTRPPRLPRPRPRPQDKPRP	-0.658
RRIRHRPPRLPRPRPRPRQCPRP	-0.0969
RRIRPRPPRLPRPRPRPDNKPRP	-0.778
RRIRCRPPRLPRPRPRPHCEPRP	-0.226
RRIRIRPPRLPRPRPRPCIAPRP	-0.0579
RRIRVRPPRLPRPRPRPYDRPRP	-0.00895

Sequence	shrunken log2 fold change
RRIRYRPPRLPRPRPRPFTYPRP	-0.529
RRIRIRPPRLPRPRPRPFCDPRP	-0.0745
RRIRWRPPRLPRPRPRPCPPPRP	-0.463
RRIRSRPPRLPRPRPRPQTAPRP	0.0464
RRIRTRPPRLPRPRPRPIQNPRP	-0.147
RRIRNRPPRLPRPRPRPEKAPRP	-0.0149
RRIRNRPPRLPRPRPRPRFNPRP	-0.766
RRIRQRPPRLPRPRPRPWYMPRP	-0.237
RRIRLRPPRLPRPRPRPVEKPRP	0.0244
RRIRDRPPRLPRPRPRPSVRPRP	0.0325
RRIRWRPPRLPRPRPRPGRAPRP	0.71
RRIRARPPRLPRPRPRPAPLPRP	0.367
RRIRWRPPRLPRPRPRPCMTPRP	0.317
RRIRQRPPRLPRPRPRPQYYPRP	-0.243
RRIRNRPPRLPRPRPRPDEAPRP	0.27
RRIRYRPPRLPRPRPRPPQKPRP	-0.123
RRIRRRPPRLPRPRPRPPETPRP	0.831
RRIRCRPPRLPRPRPRPRVNPRP	0.0551
RRIRPRPPRLPRPRPRPNGFPRP	-0.216
RRIRPRPPRLPRPRPRPMWRPRP	-0.0622
RRIRSRPPRLPRPRPRPSYWPRP	2.29
RRIRGRPPRLPRPRPRPQFMPRP	0.0535
RRIRVRPPRLPRPRPRPLFYPRP	-0.22
RRIRQRPPRLPRPRPRPRDAPRP	0.494
RRIRARPPRLPRPRPRPDPKPRP	0.268

Sequence	shrunken log2 fold change
RRIRDRPPRLPRPRPRPHSTPRP	-0.0545
RRIRIRPPRLPRPRPRPCGYPRP	-0.01
RRIRLRPPRLPRPRPRPTAFPRP	0.0454
RRIRERPPRLPRPRPRPQPYPRP	-0.43
RRIRKRPPRLPRPRPRPGKCPRP	0.0131
RRIRMRPPRLPRPRPRPSWKPRP	-0.181
RRIRARPPRLPRPRPRPFYGPRP	-0.0165
RRIRDRPPRLPRPRPRPVNFPRP	0.0142
RRIRNRPPRLPRPRPRPHAAPRP	0.545
RRIRMRPPRLPRPRPRPKIAPRP	0.244
RRIRQRPPRLPRPRPRPNKLPRP	-0.0898
RRIRNRPPRLPRPRPRPQGYPRP	-0.667
RRIRCRPPRLPRPRPRPVPAPRP	0.457
RRIRQRPPRLPRPRPRPDNQPRP	-0.037
RRIRIRPPRLPRPRPRPDSAPRP	-0.194
RRIRRRPPRLPRPRPRPDMPPRP	-0.0169
RRIRGRPPRLPRPRPRPYTCPRP	-0.0226
RRIRIRPPRLPRPRPRPCHCPRP	0.0274
RRIRSRPPRLPRPRPRPMPTPRP	0.358
RRIRWRPPRLPRPRPRPESEPRP	0.916
RRIRHRPPRLPRPRPRPQITPRP	-0.884
RRIRERPPRLPRPRPRPKEPPRP	0.131
RRIRWRPPRLPRPRPRPMGAPRP	0.501
RRIRTRPPRLPRPRPRPPNMPRP	-0.203
RRIRVRPPRLPRPRPRPTWSPRP	0.0201

Sequence	shrunken log2 fold change
RRIRLRPPRLPRPRPRPADHPRP	-0.53
RRIRKRPPRLPRPRPRPDYIPRP	-0.0117
RRIRSRPPRLPRPRPRPLTAPRP	-0.0374
RRIRSRPPRLPRPRPRPWMHPRP	-0.0312
RRIRYRPPRLPRPRPRPKFNPRP	-1.1
RRIRARPPRLPRPRPRPAMPPRP	-0.131
RRIRARPPRLPRPRPRPQNDPRP	5.63e-05
RRIRARPPRLPRPRPRPVIHPRP	-0.307
RRIRFRPPRLPRPRPRPIKHPRP	-0.485
RRIRPRPPRLPRPRPRPCQNPRP	-0.0169
RRIRSRPPRLPRPRPRPEWRPRP	0.478
RRIRYRPPRLPRPRPRPRCIPRP	-0.308
RRIRDRPPRLPRPRPRPFMDPRP	-0.112
RRIRFRPPRLPRPRPRPMHIPRP	-0.419
RRIRYRPPRLPRPRPRPMVLPRP	-0.0934
RRIRTRPPRLPRPRPRPNALPRP	-0.0225
RRIRVRPPRLPRPRPRPKAWPRP	0.0531
RRIRLRPPRLPRPRPRPTEDPRP	-0.0182
RRIRKRPPRLPRPRPRPLPDPRP	-0.105
RRIRWRPPRLPRPRPRPCHYPRP	-0.0893
RRIRVRPPRLPRPRPRPVRSPRP	0.522
RRIRNRPPRLPRPRPRPQLLPRP	-0.0811
RRIRQRPPRLPRPRPRPDQRPRP	-0.00141
RRIRVRPPRLPRPRPRPWWIPRP	-0.202
RRIRRRPPRLPRPRPRPMIEPRP	0.177
